1 molecule from patent US20240287161A1 (NATIONAL UNIVERSITY CORPORATION TOTTORI UNIVERSITY, published 2024) can be followed below.

In experiment [1] the target is T1, HCoV-229E trimeric S protein (amino acids 12-1109) with T4 foldon, histidine tag and strep-tag (HCoV-229E, UniProt P15423 12-1112).
T1 chain: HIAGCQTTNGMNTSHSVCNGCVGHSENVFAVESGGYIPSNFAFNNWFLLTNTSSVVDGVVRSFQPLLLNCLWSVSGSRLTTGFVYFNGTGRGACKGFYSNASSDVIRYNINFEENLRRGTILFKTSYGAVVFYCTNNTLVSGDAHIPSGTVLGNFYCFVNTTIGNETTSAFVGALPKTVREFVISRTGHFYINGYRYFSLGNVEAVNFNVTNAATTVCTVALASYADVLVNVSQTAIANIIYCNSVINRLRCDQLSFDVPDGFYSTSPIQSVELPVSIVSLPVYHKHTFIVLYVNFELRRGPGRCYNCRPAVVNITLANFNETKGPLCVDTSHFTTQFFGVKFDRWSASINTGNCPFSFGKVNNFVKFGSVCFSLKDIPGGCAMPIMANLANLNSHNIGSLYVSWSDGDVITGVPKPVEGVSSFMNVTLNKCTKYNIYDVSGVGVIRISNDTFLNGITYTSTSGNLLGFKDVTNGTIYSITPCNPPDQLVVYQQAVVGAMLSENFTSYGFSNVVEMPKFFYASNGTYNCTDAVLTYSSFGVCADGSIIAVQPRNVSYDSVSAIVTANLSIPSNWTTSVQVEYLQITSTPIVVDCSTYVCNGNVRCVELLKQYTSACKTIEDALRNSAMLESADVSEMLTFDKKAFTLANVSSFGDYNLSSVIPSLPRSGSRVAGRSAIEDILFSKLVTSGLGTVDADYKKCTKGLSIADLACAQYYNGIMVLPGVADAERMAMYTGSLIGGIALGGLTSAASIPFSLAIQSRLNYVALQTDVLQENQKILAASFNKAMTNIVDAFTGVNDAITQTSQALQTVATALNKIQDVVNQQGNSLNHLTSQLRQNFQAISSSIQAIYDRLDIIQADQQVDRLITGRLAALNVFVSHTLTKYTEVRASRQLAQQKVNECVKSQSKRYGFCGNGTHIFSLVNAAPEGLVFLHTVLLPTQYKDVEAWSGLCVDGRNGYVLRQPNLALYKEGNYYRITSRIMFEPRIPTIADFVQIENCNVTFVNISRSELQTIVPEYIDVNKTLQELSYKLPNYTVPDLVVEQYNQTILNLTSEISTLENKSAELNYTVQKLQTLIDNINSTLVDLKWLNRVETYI
Nature of the experiment: ELISA on coated S-trimeric antigen, anti-human IgG-HRP [Human IgG1, NT-108]. (In an ELISA, binding on a coated surface is turned into a signal by an enzyme label.)

For experiment [2], the target named is T2, HCoV-NL63 trimeric S protein (amino acids 22-1293) with T4 foldon, histidine tag and strep-tag (HCoV-NL63, UniProt Q6Q1S2 23-1293).
T2 sequence: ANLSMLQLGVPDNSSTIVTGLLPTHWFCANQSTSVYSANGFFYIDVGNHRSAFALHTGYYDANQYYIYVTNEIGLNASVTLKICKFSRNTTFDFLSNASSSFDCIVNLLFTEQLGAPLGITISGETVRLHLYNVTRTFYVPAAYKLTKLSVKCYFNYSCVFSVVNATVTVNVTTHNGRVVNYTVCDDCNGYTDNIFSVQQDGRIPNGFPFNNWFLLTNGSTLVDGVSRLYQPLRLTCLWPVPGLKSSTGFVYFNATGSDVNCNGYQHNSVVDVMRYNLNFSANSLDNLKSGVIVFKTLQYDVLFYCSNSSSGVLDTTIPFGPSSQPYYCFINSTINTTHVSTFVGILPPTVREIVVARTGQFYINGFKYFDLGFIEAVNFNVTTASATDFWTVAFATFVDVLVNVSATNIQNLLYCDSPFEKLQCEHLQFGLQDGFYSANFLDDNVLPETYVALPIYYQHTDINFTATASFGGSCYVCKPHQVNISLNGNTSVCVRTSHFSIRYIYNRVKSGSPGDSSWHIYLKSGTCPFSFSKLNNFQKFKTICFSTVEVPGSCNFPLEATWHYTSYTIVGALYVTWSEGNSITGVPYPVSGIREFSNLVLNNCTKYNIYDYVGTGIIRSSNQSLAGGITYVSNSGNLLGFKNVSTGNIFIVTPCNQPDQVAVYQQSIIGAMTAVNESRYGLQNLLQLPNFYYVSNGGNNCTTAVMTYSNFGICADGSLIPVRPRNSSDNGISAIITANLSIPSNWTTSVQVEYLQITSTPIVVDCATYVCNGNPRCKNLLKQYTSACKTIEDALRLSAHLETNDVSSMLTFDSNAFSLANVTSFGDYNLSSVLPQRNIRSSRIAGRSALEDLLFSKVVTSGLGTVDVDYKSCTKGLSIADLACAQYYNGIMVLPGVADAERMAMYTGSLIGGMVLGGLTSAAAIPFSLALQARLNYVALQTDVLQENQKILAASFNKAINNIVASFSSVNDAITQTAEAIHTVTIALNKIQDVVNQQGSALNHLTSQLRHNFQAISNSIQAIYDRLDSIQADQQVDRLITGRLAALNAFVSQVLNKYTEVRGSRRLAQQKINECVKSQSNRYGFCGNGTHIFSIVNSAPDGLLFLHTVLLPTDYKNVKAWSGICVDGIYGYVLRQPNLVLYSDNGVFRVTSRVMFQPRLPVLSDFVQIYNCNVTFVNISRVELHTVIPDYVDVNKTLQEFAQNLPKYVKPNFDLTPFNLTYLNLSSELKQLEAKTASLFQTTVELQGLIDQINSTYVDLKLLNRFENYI
Described as above.

B1: NT-108 (recombinant human IgG1/kappa antibody) (antibody, V domains shown)
VH: EVQLQQSGPGLVKPSQTLSLTCSISGDSVSSNSAAWNWIRQSPSRGLEWLGRTYYRSKWYNDYAGTVKSRIAINPDTSKNQFSLHLNSVTPEDTAVYFCARVISVAGYAFDIWGQGTMVTVSS
VL: EIVLTQSPGTLSLSPGERATLSCRASQSVSSTFLAWYQQKPGQAPRLLIYGASYMATGIPDRFSGSGSGTDFTLTISRLEPEDFAVYYCQQYGSSLTFGGGTKLEIK
Take B1: the binding result in experiment [1] and in experiment [2] was “no binding (tested: 1000 ng/ml)” each time.
